According to article PMC3235159:

How the values were obtained:
TGF-β1 (Homo sapiens) = TGF-β1 (Homo sapiens) (UniProt P01137); conditions: cited from earlier work
[1] = target: Purified LRP1 (LDL receptor-related protein 1) (UniProt Q07954); test: SPR; purified LRP1 immobilised on a CM5 chip by amine coupling (5.8 fmol/mm^2, 3,500 RU); TGF-β2 flowed at 6, 12, 15, 50, 100 and 200 nM; HBS-P pH 7.4, 0.005% Tween 20, 1 mM CaCl2, 20 µl/min, 25°C; Rmax of pseudo-first order fits replotted against concentration and fit to a single class of sites
Chain of Purified LRP1 (LDL receptor-related protein 1) (Q07954 20-4544): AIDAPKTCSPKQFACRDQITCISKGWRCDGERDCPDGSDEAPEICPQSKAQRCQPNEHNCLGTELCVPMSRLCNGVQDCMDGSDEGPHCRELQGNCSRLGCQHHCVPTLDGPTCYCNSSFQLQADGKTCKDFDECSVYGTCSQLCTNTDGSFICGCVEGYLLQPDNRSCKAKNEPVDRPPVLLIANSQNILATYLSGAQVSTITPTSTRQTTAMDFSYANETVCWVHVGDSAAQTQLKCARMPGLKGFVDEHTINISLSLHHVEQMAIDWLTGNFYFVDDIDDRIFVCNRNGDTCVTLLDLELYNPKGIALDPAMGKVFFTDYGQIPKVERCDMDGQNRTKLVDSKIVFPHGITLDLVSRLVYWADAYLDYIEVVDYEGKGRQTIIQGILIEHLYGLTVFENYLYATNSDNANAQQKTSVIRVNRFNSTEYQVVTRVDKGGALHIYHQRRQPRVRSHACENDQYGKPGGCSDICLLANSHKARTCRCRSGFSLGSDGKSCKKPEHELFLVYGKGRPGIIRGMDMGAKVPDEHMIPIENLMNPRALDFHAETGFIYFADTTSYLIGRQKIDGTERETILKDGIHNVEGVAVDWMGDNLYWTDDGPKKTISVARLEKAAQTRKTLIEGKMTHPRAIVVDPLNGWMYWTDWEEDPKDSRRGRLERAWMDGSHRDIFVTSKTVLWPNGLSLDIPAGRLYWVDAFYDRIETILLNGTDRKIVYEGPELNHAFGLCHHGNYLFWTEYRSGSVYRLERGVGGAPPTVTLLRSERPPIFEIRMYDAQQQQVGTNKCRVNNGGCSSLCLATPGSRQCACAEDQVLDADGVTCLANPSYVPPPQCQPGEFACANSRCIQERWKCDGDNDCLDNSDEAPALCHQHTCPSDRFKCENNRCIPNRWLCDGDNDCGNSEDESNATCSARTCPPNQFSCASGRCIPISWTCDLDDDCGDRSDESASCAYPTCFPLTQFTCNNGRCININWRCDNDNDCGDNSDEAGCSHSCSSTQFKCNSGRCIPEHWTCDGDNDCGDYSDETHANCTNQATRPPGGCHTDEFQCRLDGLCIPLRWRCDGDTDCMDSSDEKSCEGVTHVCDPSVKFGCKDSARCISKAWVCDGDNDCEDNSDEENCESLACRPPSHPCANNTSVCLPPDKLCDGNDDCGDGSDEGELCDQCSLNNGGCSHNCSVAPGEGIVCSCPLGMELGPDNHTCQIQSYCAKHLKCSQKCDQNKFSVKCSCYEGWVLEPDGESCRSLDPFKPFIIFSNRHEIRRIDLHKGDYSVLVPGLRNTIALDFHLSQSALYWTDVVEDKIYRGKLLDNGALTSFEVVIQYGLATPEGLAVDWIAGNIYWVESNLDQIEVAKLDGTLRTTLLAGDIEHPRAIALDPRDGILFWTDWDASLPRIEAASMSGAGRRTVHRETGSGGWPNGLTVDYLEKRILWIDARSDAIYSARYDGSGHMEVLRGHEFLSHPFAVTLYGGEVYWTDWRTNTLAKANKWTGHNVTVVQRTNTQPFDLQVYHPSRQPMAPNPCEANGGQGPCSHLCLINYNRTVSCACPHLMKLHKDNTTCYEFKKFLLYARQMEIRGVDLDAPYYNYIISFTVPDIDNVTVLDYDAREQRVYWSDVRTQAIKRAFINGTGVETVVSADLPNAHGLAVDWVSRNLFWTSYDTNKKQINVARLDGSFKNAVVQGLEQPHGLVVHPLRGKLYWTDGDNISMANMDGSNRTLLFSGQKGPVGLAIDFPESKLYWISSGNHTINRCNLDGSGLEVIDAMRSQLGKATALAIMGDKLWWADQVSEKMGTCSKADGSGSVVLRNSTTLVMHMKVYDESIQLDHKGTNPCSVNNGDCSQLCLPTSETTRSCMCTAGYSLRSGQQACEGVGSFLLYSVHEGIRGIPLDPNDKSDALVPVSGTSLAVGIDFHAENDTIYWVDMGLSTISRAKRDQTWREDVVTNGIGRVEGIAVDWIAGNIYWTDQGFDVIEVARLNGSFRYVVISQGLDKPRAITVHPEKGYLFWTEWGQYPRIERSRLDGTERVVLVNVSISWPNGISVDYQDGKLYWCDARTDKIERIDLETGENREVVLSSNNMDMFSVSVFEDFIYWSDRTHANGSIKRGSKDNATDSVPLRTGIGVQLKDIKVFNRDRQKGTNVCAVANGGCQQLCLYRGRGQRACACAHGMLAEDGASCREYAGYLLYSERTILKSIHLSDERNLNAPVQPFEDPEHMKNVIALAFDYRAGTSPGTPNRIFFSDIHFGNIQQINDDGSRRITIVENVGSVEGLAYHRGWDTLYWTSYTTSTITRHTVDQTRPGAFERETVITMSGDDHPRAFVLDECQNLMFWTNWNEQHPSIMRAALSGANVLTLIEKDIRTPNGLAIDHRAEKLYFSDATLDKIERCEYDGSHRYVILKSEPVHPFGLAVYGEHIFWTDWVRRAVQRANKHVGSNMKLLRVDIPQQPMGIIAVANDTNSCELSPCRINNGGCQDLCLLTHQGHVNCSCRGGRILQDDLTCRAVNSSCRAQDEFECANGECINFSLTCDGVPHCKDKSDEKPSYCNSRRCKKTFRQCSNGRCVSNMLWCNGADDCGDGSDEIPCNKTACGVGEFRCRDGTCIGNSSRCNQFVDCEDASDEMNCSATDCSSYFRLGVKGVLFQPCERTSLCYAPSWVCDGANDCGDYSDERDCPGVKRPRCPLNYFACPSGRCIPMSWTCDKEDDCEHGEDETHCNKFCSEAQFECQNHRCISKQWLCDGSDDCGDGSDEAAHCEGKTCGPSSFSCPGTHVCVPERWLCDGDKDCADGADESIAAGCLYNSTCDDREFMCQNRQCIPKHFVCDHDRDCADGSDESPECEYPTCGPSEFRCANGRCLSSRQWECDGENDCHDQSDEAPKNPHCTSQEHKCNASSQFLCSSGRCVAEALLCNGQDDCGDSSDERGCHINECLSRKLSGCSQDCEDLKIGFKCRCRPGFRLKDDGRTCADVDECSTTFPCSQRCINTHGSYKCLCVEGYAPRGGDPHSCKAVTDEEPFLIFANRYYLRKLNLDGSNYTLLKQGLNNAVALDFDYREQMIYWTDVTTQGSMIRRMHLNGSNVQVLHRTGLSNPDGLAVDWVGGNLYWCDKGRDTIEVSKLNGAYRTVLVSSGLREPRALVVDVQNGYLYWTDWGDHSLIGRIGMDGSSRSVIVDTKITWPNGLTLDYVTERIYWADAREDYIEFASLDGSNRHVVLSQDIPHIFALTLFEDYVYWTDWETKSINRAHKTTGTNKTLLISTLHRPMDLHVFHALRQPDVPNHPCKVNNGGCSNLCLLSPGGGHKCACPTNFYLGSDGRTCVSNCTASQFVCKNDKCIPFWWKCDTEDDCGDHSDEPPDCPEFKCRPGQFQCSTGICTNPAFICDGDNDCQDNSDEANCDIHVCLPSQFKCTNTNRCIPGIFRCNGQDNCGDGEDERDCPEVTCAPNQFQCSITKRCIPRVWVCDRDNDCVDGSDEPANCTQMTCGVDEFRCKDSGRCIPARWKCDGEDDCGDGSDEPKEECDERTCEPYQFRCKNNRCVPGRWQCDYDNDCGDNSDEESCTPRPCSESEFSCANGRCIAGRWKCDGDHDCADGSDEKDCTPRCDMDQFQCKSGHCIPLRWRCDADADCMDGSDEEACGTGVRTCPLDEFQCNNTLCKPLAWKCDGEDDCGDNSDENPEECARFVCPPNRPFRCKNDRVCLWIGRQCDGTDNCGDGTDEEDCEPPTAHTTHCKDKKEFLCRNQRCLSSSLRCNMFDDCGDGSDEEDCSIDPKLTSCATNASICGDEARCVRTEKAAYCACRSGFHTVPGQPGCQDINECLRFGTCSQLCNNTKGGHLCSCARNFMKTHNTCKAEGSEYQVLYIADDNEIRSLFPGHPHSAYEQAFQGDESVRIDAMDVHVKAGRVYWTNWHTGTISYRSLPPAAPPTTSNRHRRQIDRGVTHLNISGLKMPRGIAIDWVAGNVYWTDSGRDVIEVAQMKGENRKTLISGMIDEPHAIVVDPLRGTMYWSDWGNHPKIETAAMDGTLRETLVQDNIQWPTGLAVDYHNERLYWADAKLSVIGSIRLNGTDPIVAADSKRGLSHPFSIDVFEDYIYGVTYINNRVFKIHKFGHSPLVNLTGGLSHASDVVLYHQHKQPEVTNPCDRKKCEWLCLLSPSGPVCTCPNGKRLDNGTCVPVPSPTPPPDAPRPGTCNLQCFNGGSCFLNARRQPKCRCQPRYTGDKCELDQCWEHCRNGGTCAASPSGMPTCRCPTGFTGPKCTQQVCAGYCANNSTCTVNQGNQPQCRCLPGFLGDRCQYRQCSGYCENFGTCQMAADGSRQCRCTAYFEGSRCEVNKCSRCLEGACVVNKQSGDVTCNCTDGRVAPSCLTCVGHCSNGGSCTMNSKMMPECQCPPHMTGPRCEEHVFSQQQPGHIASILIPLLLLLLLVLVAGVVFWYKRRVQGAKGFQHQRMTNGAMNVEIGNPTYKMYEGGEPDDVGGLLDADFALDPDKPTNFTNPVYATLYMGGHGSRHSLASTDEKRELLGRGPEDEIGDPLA

Chain of TGF-β1 (Homo sapiens) (P01137 279-390): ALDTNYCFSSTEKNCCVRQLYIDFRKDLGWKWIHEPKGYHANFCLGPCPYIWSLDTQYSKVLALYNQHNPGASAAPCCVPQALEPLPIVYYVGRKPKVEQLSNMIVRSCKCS
Chain of LRP1 (Q07954 20-4544): as the sequence (Q07954 20-4544) above

Row | Kd [1] | Substance | Kd (TGF-β1 (Homo sapiens))
1 |  | LRP1 (from UniProt Q07954) | 157 nM
2 | 222 nM | TGF-β2 (Sigma) (ligand) | 
